These results are taken from patent US20250092143A1 (UNIVERSITY OF SOUTHERN CALIFORNIA, published 2025).

Test [1] deals with T1, αCD3-αEGFR-PD-1-OX40L GEMINI-Exos (human).
T1 construct: Engineered exosome from Expi293F cells co-transfected with the αCD3-αEGFR-PDGFR TMD and PD-1-CD9-OX40L constructs; Both fusions sit on the same exosome; also called genetically engineered multifunctional immune-modulating exosomes
Description: assay not named. As for the experimental part: FIG. 3. […] (A) Immunoblot analysis of purified exosomes. […] Data are shown as mean±SD of duplicates. […] The levels of secreted IL-2 were measured by ELISA.
ELISA analysis of binding of engineered exosomes to ligands and receptors. […] High-binding 96 well plates (Greiner Bio-One, Monroe, NC) were coated with various concentrations of exosomes overnight at room temperature. Following extensive washing with PBST, wells were blocked with PBS containing 1% BSA for 2 hours at room temperature, followed by extensive washing with PBST. Corresponding ligands or receptors ([…]; PD-L1-hFc and PD-L2-hFc from PeproTech, Inc. and OX40-hFc from BioLegend) were added and incubated for 2 hours at room temperature, followed by extensive washing with PBST. Goat anti-human IgG-HRP was subsequently added for 1-hour incubation at room temperature, followed by extensive washing. QuantaBlu fluorogenic peroxidase substrate (Thermo Fisher Scientific, MA) was then added.

Test [2] concerns the target T1, αCD3-αEGFR-PD-1-OX40L GEMINI-Exos. Kind of test: flow cytometry on BT-20 cells, anti-HA detection.
Description: BT-20 cells were treated with 100 U/mL IFN-γ (BioLegend) for 2 days to induce expression of PD-L1. […] Briefly, cells (300,000 cells per tube) were stained with 100 μg mL⁻¹ of exosomes for 30 minutes at 4° C. Cells were washed three times with PBS containing 2% FBS and stained with an anti-HA antibody (2-2.2.14, from Thermo Fisher Scientific) for 30 minutes at 4° C. […] Thereafter, cells were washed and resuspended in PBS containing 2% FBS, followed by analysis using a BD Fortessa X20 flow cytometer. Data were processed by FlowJo_V10 software (Tree Star Inc., Ashland, OR).

B1: PD-L2-hFc (Fc fusion, human, UniProt Q9BQ51 20-220, looked up)
chain: LFTVTVPKELYIIEHGSNVTLECNFDTGSHVNLGAITASLQKVENDTSPHRERATLLEEQLPLGKASFHIPQVQVRDEGQYQCIIIYGVAWDYKYLTLKVKASYRKINTHILKVPETDEVELTCQATGYPLAEVSWPNVSVPANTSHSRTPEGLYQVTSVLRLKPPPGRNFSCVFWNTHVRELTLASIDLQSQMEPRTHPT
notes: Bought from PeproTech; also called PD-L2-Fc; not shown: human Fc (hFc) of the bought reagent
Consider B1, for which, in test [1], the binding result is recorded as “binds”.

B2: PD-L2 on IFN-γ stimulated BT-20 cells (ligand, human, UniProt Q9BQ51 20-273, looked up)
chain: LFTVTVPKELYIIEHGSNVTLECNFDTGSHVNLGAITASLQKVENDTSPHRERATLLEEQLPLGKASFHIPQVQVRDEGQYQCIIIYGVAWDYKYLTLKVKASYRKINTHILKVPETDEVELTCQATGYPLAEVSWPNVSVPANTSHSRTPEGLYQVTSVLRLKPPPGRNFSCVFWNTHVRELTLASIDLQSQMEPRTHPTWLLHIFIPFCIIAFIFIATVIALRKQLCQKLYSSKDTTKRPVTTTKREVNSAI
notes: whole, on cells; BT-20 cells also carry PD-L1 and EGFR; also called PD-L2^+ BT-20 cells
Turning to B2, the binding result in test [2] is “binds”.

B3: OX40-hFc (Fc fusion, human, UniProt P43489 29-214, looked up)
chain: LHCVGDTYPSNDRCCHECRPGNGMVSRCSRSQNTVCRPCGPGFYNDVVSSKPCKPCTWCNLRSGSERKQLCTATQDTVCRCRAGTQPLDSYKPGVDCAPCPPGHFSPGDNQACKPWTNCTLAGKHTLQPASNSSDAICEDRDPPATQPQETQGPPARPITVQPTEAWPRTSQGPSTRPVEVPGGRA
notes: Bought from BioLegend; also called OX40-Fc; biotinylated OX40-hFc; not shown: human Fc (hFc) of the bought reagent
In the case of B3, the binding result in test [1] is “binds”.
